Assay results as given in publication PMC7040040.
pKd: −log10 of the molar value.

Assays:
[1] = biological target: humanized PBD-C06 (CDR-grafted IgG1:kappa version) (human); assay: SPR; Biacore 3000; antibody captured on a CM5 chip via immobilised anti-mouse or anti-human antibody; monomeric Aβ peptides injected (240 µl, 30 µl/min), running buffer HBS-EP; 1:1 Langmuir binding model
[2] = biological target: humanized PBD-C06 with A97 of the VH framework substituted by murine T97 (human); assay: as above
Sequence of humanized PBD-C06 with A97 of the VH framework substituted by murine T97 (human) (heavy, as listed by the source, chain 1 of 2): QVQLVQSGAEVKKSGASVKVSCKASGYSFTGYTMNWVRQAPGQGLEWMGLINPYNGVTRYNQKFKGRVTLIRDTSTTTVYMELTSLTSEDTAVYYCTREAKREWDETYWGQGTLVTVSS
Sequence of humanized PBD-C06 with A97 of the VH framework substituted by murine T97 (human) (light, as listed by the source, chain 2 of 2): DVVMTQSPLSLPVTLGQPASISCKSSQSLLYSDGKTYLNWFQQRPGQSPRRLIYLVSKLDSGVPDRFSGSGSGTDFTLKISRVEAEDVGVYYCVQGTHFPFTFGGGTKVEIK

Sequence of humanized PBD-C06 (CDR-grafted IgG1:kappa version) (human) (heavy, as listed by the source, chain 1 of 2): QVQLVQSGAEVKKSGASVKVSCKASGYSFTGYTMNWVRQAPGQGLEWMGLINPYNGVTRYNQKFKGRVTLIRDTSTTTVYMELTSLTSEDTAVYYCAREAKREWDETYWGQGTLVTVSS
Sequence of humanized PBD-C06 (CDR-grafted IgG1:kappa version) (human) (light, as listed by the source, chain 2 of 2): as the sequence (light, as listed by the source, chain 2 of 2) above

pE3-Aβ(3–18) monomer (peptide)
pKd [1]: 7.36
pKd [2]: 8.28
